Results taken from patent publication US20230140797A1 (published 2023).

Legend:
[1] = target: T1, human FcγRIIb extracellular domain with C-terminal His tag (human, UniProt P31994 43-217); test: SPR
T1 sequence (looked up): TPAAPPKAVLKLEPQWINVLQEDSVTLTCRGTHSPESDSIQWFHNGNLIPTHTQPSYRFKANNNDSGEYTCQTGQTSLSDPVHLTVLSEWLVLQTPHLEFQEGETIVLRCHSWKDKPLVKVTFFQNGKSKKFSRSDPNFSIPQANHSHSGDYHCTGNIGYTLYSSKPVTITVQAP

[2] = target: T1, human FcγRIIb extracellular domain with …; test: SPR; remark: listed apart in the source

KD (IIaH)/KD (IIb) [1]	KD (IIaR)/KD (IIb) [2]	Binder
658	18.5	BP504 (antibody, human IgG1, kappa) heavy: QVQLQESGPGLVKPSETLSLTCAVSGHSISHDHAWSWVRQPPGEGLEWIGFISYSGITNYNPSLQGRVTISRDNSKNTLYLQMNSLRAEDTAVYYCARSLARTTAMDYWGEGTLVTVSSASTKGPSVFPLAPSSKSTSGGTAALGCLVKDYFPEPVTVSWNSGALTSGVHTFPAVLQSSGLYSLSSVVTVPSSSLGTQTYICNVNHKPSNTKVDKKVEPKSCDKTHTCPPCPAPDLLGDDSVFLFPPKPKDTLMISRTPEVTCVVIDVAEEDGPVKFNWYVDGVEVHNAKTKPREEQYNSTYRVVSVLTVLHQDWLNGKEYKCKVSNKALPAPIEKTISKAKGQPREPQVYTLPPSRDELTKNQVSLTCLVKGFYPSDIAVEWESNGQPENNYKTTPPVLDSDGSFFLYSKLTVDKSRWQQGNVFSCSVMHEALHNHYTQESLSLSP light: not shown
466	20	BP562 (antibody, human IgG1, kappa) heavy: QVQLQESGPGLVKPSETLSLTCAVSGHSISHDHAWSWVRQPPGEGLEWIGFISYSGITNYNPSLQGRVTISRDNSKNTLYLQMNSLRAEDTAVYYCARSLARTTAMDYWGEGTLVTVSSASTKGPSVFPLAPSSKSTSGGTAALGCLVKDYFPEPVTVSWNSGALTSGVHTFPAVLQSSGLYSLSSVVTVPSSSLGTQTYICNVNHKPSNTKVDKKVEPKSCDKTHTCPPCPAPELLGDDSVFLFPPKPKDTLMISRTPEVTCVVVDVSDEDGDVKFNWYVDGVEVHNAKTKPREEQDNSTYRVVSVLTVLHQDWLNGKEYKCKVSNKALPRPIEKTISKAKGQPREPQVYTLPPSRDELTKNQVSLTCLVKGFYPSDIAVEWESNGQPENNYKTTPPVLDSDGSFFLYSKLTVDKSRWQQGNVFSCSVMHEALHNHYTQESLSLSP light: not shown
684	28.3	IL6R-BP533/IL6R-L (antibody, human IgG1, kappa) heavy: QVQLQESGPGLVKPSETLSLTCAVSGHSISHDHAWSWVRQPPGEGLEWIGFISYSGITNYNPSLQGRVTISRDNSKNTLYLQMNSLRAEDTAVYYCARSLARTTAMDYWGEGTLVTVSSASTKGPSVFPLAPSSKSTSGGTAALGCLVKDYFPEPVTVSWNSGALTSGVHTFPAVLQSSGLYSLSSVVTVPSSSLGTQTYICNVNHKPSNTKVDKKVEPKSCDKTHTCPPCPAPDLLGDDSVFLFPPKPKDTLMISRTPEVTCVVIDVGEEDGEVKFNWYVDGVEVHNAKTKPREEQDNSTYRVVSVLTVLHQDWLNGKEYKCKVSNKALPRPIEKTISKAKGQPREPQVYTLPPSRDELTKNQVSLTCLVKGFYPSDIAVEWESNGQPENNYKTTPLVLDSDGSFFLYSKLTVDKSRWQQGNVFSCSVMHEALHNHYTQESLSLSP light: not shown
962	26	BP508 (antibody, human IgG1, kappa) heavy: QVQLQESGPGLVKPSETLSLTCAVSGHSISHDHAWSWVRQPPGEGLEWIGFISYSGITNYNPSLQGRVTISRDNSKNTLYLQMNSLRAEDTAVYYCARSLARTTAMDYWGEGTLVTVSSASTKGPSVFPLAPSSKSTSGGTAALGCLVKDYFPEPVTVSWNSGALTSGVHTFPAVLQSSGLYSLSSVVTVPSSSLGTQTYICNVNHKPSNTKVDKKVEPKSCDKTHTCPPCPAPDLLGDDSVFLFPPKPKDTLMISRTPEVTCVVIDVAEEDGPVKFNWYVDGVEVHNAKTKPREEQDNSTYRVVSVLTVLHQDWLNGKEYKCKVSNKALPAPIEKTISKAKGQPREPQVYTLPPSRDELTKNQVSLTCLVKGFYPSDIAVEWESNGQPENNYKTTPPVLDSDGSFFLYSKLTVDKSRWQQGNVFSCSVMHEALHNHYTQESLSLSP light: not shown
525	29.1	BP563 (antibody, human IgG1, kappa) heavy: QVQLQESGPGLVKPSETLSLTCAVSGHSISHDHAWSWVRQPPGEGLEWIGFISYSGITNYNPSLQGRVTISRDNSKNTLYLQMNSLRAEDTAVYYCARSLARTTAMDYWGEGTLVTVSSASTKGPSVFPLAPSSKSTSGGTAALGCLVKDYFPEPVTVSWNSGALTSGVHTFPAVLQSSGLYSLSSVVTVPSSSLGTQTYICNVNHKPSNTKVDKKVEPKSCDKTHTCPPCPAPDLLGDDSVFLFPPKPKDTLMISRTPEVTCVVVDVSEEDGDVKFNWYVDGVEVHNAKTKPREEQDNSTYRVVSVLTVLHQDWLNGKEYKCKVSNKALPRPIEKTISKAKGQPREPQVYTLPPSRDELTKNQVSLTCLVKGFYPSDIAVEWESNGQPENNYKTTPPVLDSDGSFFLYSKLTVDKSRWQQGNVFSCSVMHEALHNHYTQESLSLSP light: not shown
168	22.8	BP560 (antibody, human IgG1, kappa) heavy: QVQLQESGPGLVKPSETLSLTCAVSGHSISHDHAWSWVRQPPGEGLEWIGFISYSGITNYNPSLQGRVTISRDNSKNTLYLQMNSLRAEDTAVYYCARSLARTTAMDYWGEGTLVTVSSASTKGPSVFPLAPSSKSTSGGTAALGCLVKDYFPEPVTVSWNSGALTSGVHTFPAVLQSSGLYSLSSVVTVPSSSLGTQTYICNVNHKPSNTKVDKKVEPKSCDKTHTCPPCPAPELLGGDSVFLFPPKPKDTLMISRTPEVTCVVVDVGEEDGEVKFNWYVDGVEVHNAKTKPREEQDNSTYRVVSVLTVLHQDWLNGKEYKCKVSNKALPRPIEKTISKAKGQPREPQVYTLPPSRDELTKNQVSLTCLVKGFYPSDIAVEWESNGQPENNYKTTPPVLDSDGSFFLYSKLTVDKSRWQQGNVFSCSVMHEALHNHYTQESLSLSP light: not shown
444	29.2	BP509 (antibody, human IgG1, kappa) heavy: QVQLQESGPGLVKPSETLSLTCAVSGHSISHDHAWSWVRQPPGEGLEWIGFISYSGITNYNPSLQGRVTISRDNSKNTLYLQMNSLRAEDTAVYYCARSLARTTAMDYWGEGTLVTVSSASTKGPSVFPLAPSSKSTSGGTAALGCLVKDYFPEPVTVSWNSGALTSGVHTFPAVLQSSGLYSLSSVVTVPSSSLGTQTYICNVNHKPSNTKVDKKVEPKSCDKTHTCPPCPAPDLLGDDSVFLFPPKPKDTLMISRTPEVTCVVIDVAEEDGDVKFNWYVDGVEVHNAKTKPREEQDNSTYRVVSVLTVLHQDWLNGKEYKCKVSNKALPAPIEKTISKAKGQPREPQVYTLPPSRDELTKNQVSLTCLVKGFYPSDIAVEWESNGQPENNYKTTPPVLDSDGSFFLYSKLTVDKSRWQQGNVFSCSVMHEALHNHYTQESLSLSP light: not shown
1240	50.6	IL6R-BP511/IL6R-L (antibody, human IgG1, kappa) heavy: QVQLQESGPGLVKPSETLSLTCAVSGHSISHDHAWSWVRQPPGEGLEWIGFISYSGITNYNPSLQGRVTISRDNSKNTLYLQMNSLRAEDTAVYYCARSLARTTAMDYWGEGTLVTVSSASTKGPSVFPLAPSSKSTSGGTAALGCLVKDYFPEPVTVSWNSGALTSGVHTFPAVLQSSGLYSLSSVVTVPSSSLGTQTYICNVNHKPSNTKVDKKVEPKSCDKTHTCPPCPAPELLGDDSVFLFPPKPKDTLMISRTPEVTCVVIDVAEEDGPVKFNWYVDGVEVHNAKTKPREEQDNSTYRVVSVLTVLHQDWLNGKEYKCKVSNKALPRPIEKTISKAKGQPREPQVYTLPPSRDELTKNQVSLTCLVKGFYPSDIAVEWESNGQPENNYKTTPPVLDSDGSFFLYSKLTVDKSRWQQGNVFSCSVMHEALHNHYTQESLSLSP light: not shown
503	33.2	IL6R-BP503/IL6R-L (antibody, human IgG1, kappa) heavy: QVQLQESGPGLVKPSETLSLTCAVSGHSISHDHAWSWVRQPPGEGLEWIGFISYSGITNYNPSLQGRVTISRDNSKNTLYLQMNSLRAEDTAVYYCARSLARTTAMDYWGEGTLVTVSSASTKGPSVFPLAPSSKSTSGGTAALGCLVKDYFPEPVTVSWNSGALTSGVHTFPAVLQSSGLYSLSSVVTVPSSSLGTQTYICNVNHKPSNTKVDKKVEPKSCDKTHTCPPCPAPDLLGDDSVFLFPPKPKDTLMISRTPEVTCVVIDVAEEDGEVKFNWYVDGVEVHNAKTKPREEQDNSTYRVVSVLTVLHQDWLNGKEYKCKVSNKGLPRPIEKTISKAKGQPREPQVYTLPPSRDELTKNQVSLTCLVKGFYPSDIAVEWESNGQPENNYKTTPMVLDSDGSFFLYSKLTVDKSRWQQGNVFSCSVMHEALHNHYTQESLSLSP light: not shown
352	28.5	IL6R-BP502/IL6R-L (antibody, human IgG1, kappa) heavy: QVQLQESGPGLVKPSETLSLTCAVSGHSISHDHAWSWVRQPPGEGLEWIGFISYSGITNYNPSLQGRVTISRDNSKNTLYLQMNSLRAEDTAVYYCARSLARTTAMDYWGEGTLVTVSSASTKGPSVFPLAPSSKSTSGGTAALGCLVKDYFPEPVTVSWNSGALTSGVHTFPAVLQSSGLYSLSSVVTVPSSSLGTQTYICNVNHKPSNTKVDKKVEPKSCDKTHTCPPCPAPDLLGDDSVFLFPPKPKDTLMISRTPEVTCVVIDVAEEDGEVKFNWYVDGVEVHNAKTKPREEQDNSTYRVVSVLTVLHQDWLNGKEYKCKVSNKGLPRPIEKTISKAKGQPREPQVYTLPPSRDELTKNQVSLTCLVKGFYPSDIAVEWESNGQPENNYKTTPPVLDSDGSFFLYSKLTVDKSRWQQGNVFSCSVMHEALHNHYTQESLSLSP light: not shown
1030	28.9	IL6R-BP500/IL6R-L (antibody, human IgG1, kappa) heavy: QVQLQESGPGLVKPSETLSLTCAVSGHSISHDHAWSWVRQPPGEGLEWIGFISYSGITNYNPSLQGRVTISRDNSKNTLYLQMNSLRAEDTAVYYCARSLARTTAMDYWGEGTLVTVSSASTKGPSVFPLAPSSKSTSGGTAALGCLVKDYFPEPVTVSWNSGALTSGVHTFPAVLQSSGLYSLSSVVTVPSSSLGTQTYICNVNHKPSNTKVDKKVEPKSCDKTHTCPPCPAPELLGDDSVFLFPPKPKDTLMISRTPEVTCVVIDVAEEDGEVKFNWYVDGVEVHNAKTKPREEQDNSTYRVVSVLTVLHQDWLNGKEYKCKVSNKALPAPIEKTISKAKGQPREPQVYTLPPSRDELTKNQVSLTCLVKGFYPSDIAVEWESNGQPENNYKTTPPVLDSDGSFFLYSKLTVDKSRWQQGNVFSCSVMHEALHNHYTQESLSLSP light: not shown
